± gives the uncertainty stated by the source.

This series can be described thus: amyloid nucleation score (Sup35N fusion, yeast selection) (log enrichment); library NNK3; higher = more nucleation; inactive = no reads after selection. In a few lines: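 Using DiMSum, nucleation scores were taken as the log enrichment of output over input reads, centred on the mode score of non-aggregating sequences. The input and output reads came from Illumina sequencing of plasmid inserts, with sequences under 100 input reads excluded. The yeast were psi-negative, expressed Sup35N fused to peptides of 20 random codons, were induced with 100 μM copper sulfate for 24 hours, and were grown 7 days at 30°C on medium lacking adenine and uracil.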

Regarding VIKALRMVCMGHWSYSVTLS, the amyloid nucleation score result is “inactive”. Under ASRGRRLCSLYTHEGGSS stands “inactive”; under HVQYLLHKFLTLVQMF, “inactive”. In the case of YFNLITAYKVLSAHGRTLWR, the amyloid nucleation score result is “inactive”.

For the substance HPVKLILILIWPAFERSRCG, the amyloid nucleation score result was “inactive”. In the case of VFFFMNQSRRDRIE it was 1.72 ± 0.11; in that of QVLCWFISTADLLLAK, “inactive”. Under MHSGFNRFSTYCRKVGGSYR stands “inactive”; under RLYVSKEFRSA, “inactive”. Under YLLNVVYGKEVHMASDFLYG stands “inactive”; under CVVGDPSGVK, 0.62 ± 0.13. In the case of AHGNINFSLCDWHHIIQFSM, the amyloid nucleation score result is “inactive”. As for VVSDTKYVVVEWYTCGQSSD, the amyloid nucleation score entry was “inactive”. On to SDLQVIWFMFFCSTLVRDWI, for which the amyloid nucleation score entry is “inactive”.

Consider KCDDIGCLGQAT, for which the amyloid nucleation score result is “inactive”. Under LLTARTITSCKQWPGTSRYT stands “inactive”. In the case of CNYSVVFCCNFWDYYLKECA it was 2.5 ± 0.06. On to KCMFSIFSGAASVLLKMFMV, for which the amyloid nucleation score result was “inactive”. In the case of ILENVA it was “inactive”; in that of FVTFGYQWYRRVAGALGCLE, 0.37 ± 0.57; in that of FWLLVFPGNMMSS, 0.818 ± 0.14. In the case of EAKMMRDLSVLVGMPYIMTN it was “inactive”; in that of MKCLEGMHFIIFLVLALCIY, “inactive”; in that of YIRATCDSLCVISVWVLRFL, “inactive”. In the case of SDFPRMNWGFETKCDYSTVR it was “inactive”; in that of SLAYCLLEWMES, -0.172 ± 0.48; in that of ITYSMLVVVQNLA, 1.75 ± 0.1. With YVGYRFSHFSSGKRSCSYL, the amyloid nucleation score result was “inactive”. Take GILYGPCSFWDFVRLEMSRF: the amyloid nucleation score is -0.504 ± 0.8. Under LYWKEIPGMDYKMAV stands “inactive”. Under IHLVFREDITLVWVWNWIHV stands “inactive”; under ANELERYYVMCFW, 1.64 ± 0.099. Under LAASLSGIYCPSLAWRGLKE stands “inactive”. As to YSFRCPGFNYYL, the amyloid nucleation score result is “inactive”. In the case of YPSSPGH it was “inactive”; in that of MMVRWEVTV, -0.172 ± 1; in that of TLHIF, “inactive”.

Regarding KKYVETVSS, the amyloid nucleation score entry is “inactive”. In the case of DRNEQCDSL it was “inactive”.

RSEVAGFHLE registered an amyloid nucleation score of -0.807 ± 1.1. In the case of LCPIAMCCSG it was “inactive”; in that of MFMVAIGAYEGCSGRRHREV, -0.238 ± 0.64; in that of SPRKTNEAWPTGLSYETSVA, “inactive”.

IFTLMINCLE registered an amyloid nucleation score of 0.809 ± 0.1. Under SIKYSGFMWTWVNLLDPTVP stands “inactive”. Under VFSVHVWQCSNLFQRMLCNF stands 1.06 ± 0.14; under WTRCRLTDFYHSGMSYHHSG, “inactive”.

Regarding GLAVNNRPDCEVSSLNRLLM, the amyloid nucleation score result was “inactive”. Under NCMTLCLIDIRYSFENFFSF stands 2.18 ± 0.071; under LLVYFE, “inactive”; under FCGGVAFMMVNVERVRTRRE, 1.39 ± 0.15. In the case of TVTLRRYLSMERPYTSIFSI, the amyloid nucleation score result was “inactive”. Under SNWSWQSPW stands “inactive”; under KPCHLYMTAEDTYVWMSVGL, “inactive”. Under VLRRSYYRVSRPELPIWSN stands -0.153 ± 1.1; under SALLNRLSVSLYWMYGMSFM, “inactive”; under ILTWRRFVFFLDWVDFTSQG, “inactive”. On to VMFRCN, for which the amyloid nucleation score result is “inactive”. In the case of AKWSGFYYVLMYFFMLHLRY, the amyloid nucleation score entry was “inactive”. With GDYSWSM, the amyloid nucleation score was determined as 0.167 ± 0.42.

As to TCDIRCCTASPLYNRVM, the amyloid nucleation score stood at 0.129 ± 0.47. Under FYYPRS stands “inactive”; under HYRDFPSRN, “inactive”; under KTHTPTVQMEL, “inactive”. Under PVKMGVVLCNKWIYSKGTKN stands “inactive”; under PRCDYYQ, “inactive”; under YLLVHLAKCIFNWHLSSIEM, -0.109 ± 0.78.

In the case of EEGATVRTPLATRPGRTLK, the amyloid nucleation score entry is “inactive”.

Consider HRGYAAFFS, for which the amyloid nucleation score result is “inactive”. Under IIPYHEFIVGALVSHRWCQD stands “inactive”. In the case of LPYPPAITALPRPCCVNHRV it was “inactive”; in that of IRYLYLV, “inactive”.

With SLSNVGLANFLFSRPSLRSY, the amyloid nucleation score entry is “inactive”.

Regarding TRFGRSANWLFFSAPTGRQN, the amyloid nucleation score result was “inactive”.

As for ESLEMVWPRAMR, the amyloid nucleation score entry is “inactive”. For SEGSNNVSCSI, the amyloid nucleation score entry was “inactive”. In the case of HTHVSTTTGIFSDRICEW it was “inactive”. As to RTDLWRIGDVANWIYALP, the amyloid nucleation score entry was “inactive”. Take SCFVCNF: the amyloid nucleation score was found to be 2.86 ± 0.059. Under HYQHVFLAFNSVLQSPILRE stands “inactive”; under SVEGQHYKLAVTFVDLYNSI, “inactive”. Under RITLSIDLLSSEYNRIAPRR stands 1.82 ± 0.089; under MPGAALLVVLFSGFVYREAM, “inactive”. Under PYSNTKGANELQSYRRYVVS stands “inactive”. Regarding LLWVQQHWLKNDTLVTYKAK, the amyloid nucleation score entry was “inactive”. In the case of SSLNSMIIIRFHTSKGHVCK it was 1.32 ± 0.17; in that of SCCYAPRQPLWYASEFGVVG, “inactive”; in that of GLSDGWVGHRSYGSENVLLK, “inactive”. Turning to YNMSDTVRYHMSQVADCYIV, the amyloid nucleation score result was “inactive”.

In the case of FLDSLYKRGCNKFGQLWR, the amyloid nucleation score entry is “inactive”. Under VPCTWDLFYIGRSMWWFLTM stands “inactive”; under RWFQRWEIKTNAHLLTTLNM, “inactive”; under EVLYR, “inactive”. In the case of MSLLGQ it was “inactive”. The substance WKFSISWVYTKME came in with an amyloid nucleation score of -0.423 ± 0.75. In the case of CFMLSDGHTCFVLMSGWFSS it was “inactive”; in that of CNFDKTLRSHDDQLAVGITV, “inactive”. On to WTMVSGDALTCYTMTTMVRR, for which the amyloid nucleation score result was “inactive”. Under SMCGNWGNWASVGWNFCWRV stands “inactive”.

Take LENNIRSDSTFSTWTHDQCQ: the amyloid nucleation score entry was “inactive”. Under VTRSDGTTISYNISIKLGKG stands 2.2 ± 0.071. Under GGVHDSLNIYGFRYGLRKGV stands “inactive”; under CYMADNVLVGFTFVGIQEMK, “inactive”. In the case of NLRFRSIFSS it was “inactive”. Consider CITSNVMRSSRLKLV, for which the amyloid nucleation score result was “inactive”. In the case of PEKMFPSPVTATRFANCVL it was “inactive”; in that of QPWFMEVL, “inactive”; in that of LFIMFCFGIRCLEPDIRHCY, “inactive”. Under MPNYNLSGLNWVRCG stands “inactive”.

CMSTKTNFT: the amyloid nucleation score result was “inactive”. In the case of VMSSCKIRCNDTRTPAAHIC it was “inactive”. In the case of LSFVP it was “inactive”; in that of YWKFWIKSDVYCRSISGWCR, “inactive”; in that of KVWSLYLYVRSTYRL, “inactive”.

In the case of GTIRVYIKTNDATVIGEHHA, the amyloid nucleation score turned out to be 1.21 ± 0.13. In the case of FLAMSSASMFRYFKPVASSE it was 2.91 ± 0.066; in that of SMDWHAYLDRILLYVRSHS, “inactive”. Substance KQFRVWFCYFL yielded an amyloid nucleation score of 0.565 ± 0.14. Turning to PRCARYYSKLFFCFSDLFLS, the amyloid nucleation score is 0.233 ± 0.25. Under VEFSVFGERNVIYGVLSWRS stands 1.12 ± 0.12; under KLCYTASEWSGNSLNVVRNK, “inactive”; under TYKHTSWETLDDVFSDGSSS, “inactive”. In the case of LRNQITQIDDT it was “inactive”; in that of LSFYMVKGLKNKI, “inactive”. In the case of RITSDALG it was “inactive”; in that of MSFRRIFSSLIYSLRRSSAN, “inactive”; in that of FCRQCNIVLFDQSVSL, 1.87 ± 0.11. In the case of LWLGWNRKWQFSWPAAGRFL, the amyloid nucleation score result is “inactive”.

QWSGDDTT registered an amyloid nucleation score of 0.368 ± 0.22. In the case of LIGQFISYIKSVIGSDRKGC it was “inactive”; in that of DQIYSECLV, “inactive”; in that of YWDDSMKYDLKMVERSVGGK, “inactive”.

Turning to NTSLRYIKLFSVNDALPLP, the amyloid nucleation score entry was “inactive”.

Source of the values: the supplement of paper PMC12042874.
